Assay results taken from US7151087 (US Dept. of Health and Human Services, dated 2006).

B1: MIP-1α (ligand, human, UniProt P10147 23-92, looked up)
chain: ASLAADTPTACCFSYTSRQIPQNFIADYFETSSQCSKPGVIFLTKRSRQVCADPSEEWVQKYVSDLELSA
notes: also called unlabeled MIP-1α
B2: MIP-1β (ligand, human, UniProt P13236 24-92, looked up)
chain: APMGSDPPTACCFSYTARKLPRNFVVDYYETSSLCSQPAVVFQTKRSKQVCADPSESWVQEYVYDLELN
B3: RANTES (ligand, human, UniProt P13501 24-91, looked up)
chain: SPYSSDTTPCCFAYIARPLPRAHIKEYFYTSGKCSNPAVVFVTRKNRQVCANPEKKWVREYINSLEMS
notes: also called unlabeled RANTES

Experiments:
[1] = target: T1, CC CKR1, stably expressed on HEK 293 cells (Homo sapiens (Human), UniProt P32246 1-355); assay: homologous competition against ^125I-MIP-1α; reference CCR5.1 cells
T1 construct: also called CC CKLR1
T1 sequence: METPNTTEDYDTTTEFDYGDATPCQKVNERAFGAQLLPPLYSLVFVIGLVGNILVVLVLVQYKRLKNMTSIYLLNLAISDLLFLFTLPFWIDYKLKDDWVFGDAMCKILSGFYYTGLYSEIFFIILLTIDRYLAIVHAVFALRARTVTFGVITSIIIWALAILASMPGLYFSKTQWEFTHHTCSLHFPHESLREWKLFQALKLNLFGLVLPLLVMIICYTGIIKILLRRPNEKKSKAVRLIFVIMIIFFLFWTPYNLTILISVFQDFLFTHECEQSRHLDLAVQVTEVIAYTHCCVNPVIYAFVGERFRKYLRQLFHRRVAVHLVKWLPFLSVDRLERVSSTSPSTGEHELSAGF
Description: (§1) After incubation for 1 h at 4° C. or 37° C., unbound chemokines were separated from cells by pelleting through a 10% sucrose/PBS cushion, and the cell-associated counts were determined.

[2] = target: T1, CC CKR1, stably expressed on HEK 293 …; assay: heterologous competition against ^125I-RANTES on CC CKR1 cells, 37° C.
Description: as §1

[3] = target: T1, CC CKR1, stably expressed on HEK 293 …; assay: homologous competition against ^125I-MIP-1α on CC CKR1 cells
Description: as §1

[4] = target: T1, CC CKR1, stably expressed on HEK 293 …; assay: homologous competition against ^125I-MIP-1α on CC CKR1-transfected HEK 293 cells, 4° C.
Description: as §1
Each of the six CCR5 transfectants were tested at 4° C.

[5] = target: T2, CC chemokine receptor 5 (CCR5), clone 8.5 cDNA, stably expressed on HEK 293 cells (human, UniProt P51681 1-352); assay: homologous competition against ^125I-MIP-1α on CCR5.1 cells
T2 construct: also called CC CKR5; CCR5 transfectants
T2 sequence (P51681 whole entry): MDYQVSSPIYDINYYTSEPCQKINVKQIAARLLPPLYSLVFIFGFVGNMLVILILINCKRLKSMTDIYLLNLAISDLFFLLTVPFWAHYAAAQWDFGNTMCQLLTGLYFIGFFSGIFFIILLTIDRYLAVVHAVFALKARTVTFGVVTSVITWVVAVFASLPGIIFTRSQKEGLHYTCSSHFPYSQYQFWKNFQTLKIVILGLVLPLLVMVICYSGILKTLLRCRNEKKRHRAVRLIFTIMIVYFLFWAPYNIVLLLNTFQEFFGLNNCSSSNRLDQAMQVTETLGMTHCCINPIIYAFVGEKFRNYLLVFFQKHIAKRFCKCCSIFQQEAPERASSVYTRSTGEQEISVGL
Description: as §1

[6] = target: T1, CC CKR1, stably expressed on HEK 293 …; assay: homologous competition against ^125I-MIP-1β on CC CKR1 cells
Description: as §1

[7] = target: T2, CC chemokine receptor 5 (CCR5), clone …; assay: homologous competition against ^125I-MIP-1β; reference CC CKR1 cells
Description: as §1

[8] = target: T2, CC chemokine receptor 5 (CCR5), clone …; assay: homologous competition against ^125I-MIP-1β on CCR5.1 cells
Description: as §1

[9] = target: T1, CC CKR1, stably expressed on HEK 293 …; assay: radioligand binding at 37° C. to CC CKR1 cells
Description: as §1

[10] = target: T1, CC CKR1, stably expressed on HEK 293 …; assay: radioligand binding at 37° C. to CC CKR1-transfected HEK 293 cells
Description: as §1

MIP-1α = target: B1; assay: radioligand binding to intact transfected HEK 293 cells, 0.2 nM ^125I-chemokine
Description: as §1

RANTES = target: B3; assay: as above
Description: as §1

MIP-1β = target: B2; assay: as above
Description: as §1

B1
fold more effective competition on CC CKR1 than on CCR5.1 [1]: 20 fold
IC50 [2]: ~20 nM
IC50 [3]: ~5 nM
Ki [4]: 10 nM
IC50 [5]: ~100 nM

B2
IC50 [6]: ~200 nM
fold more effective competition on CCR5.1 than on CC CKR1 [7]: ~2 fold
IC50 [8]: ~100 nM

B3
binding result [9]: binds

B4: MCP-3 (ligand)
chain: not shown
notes: also called unlabeled MCP-3
binding result [10]: binds

B5: CC CKR2B, stably expressed on HEK 293 cells (receptor)
chain: MLSTSRSRFIRNTNESGEEVTTFFDYDYGAPCHKFDVKQIGAQLLPPLYSLVFIFGFVGNMLVVLILINCKKLKCLTDIYLLNLAISDLLFLITLPLWAHSAANEWVFGNAMCKLFTGLYHIGYFGGIFFIILLTIDRYLAIVHAVFALKARTVTFGVVTSVITWLVAVFASVPGIIFTKCQKEDSVYVCGPYFPRGWNNFHTIMRNILGLVLPLLIMVICYSGILKTLLRCRNEKKRHRAVRVIFTIMIVYFLFWTPYNIVILLNTFQEFFGLSNCESTSQLDQATQVTETLGMTHCCINPIIYAFVGEKFRRYLSVFFRKHITKRFCKQCPVFYRETVDGVTSTNTPSTGEQEVSAGL
notes: also called CCR2b
binding result (MIP-1α): no binding
binding result (RANTES): no binding
binding result (MIP-1β): no binding
